From FireProtDB (doi:10.1016/0022-2836(82)90184-x) come the findings set out here.

B1: Tryptophan synthase alpha chain, P0A877 (parent)
chain: MERYESLFAQLKERKEGAFVPFVTLGDPGIEQSLKIIDTLIEAGADALELGIPFSDPLADGPTIQNATLRAFAAGVTPAQCFEMLALIRQKHPTIPIGLLMYANLVFNKGIDEFYAQCEKVGVDSVLVADVPVEESAPFRQAALRHNVAPIFICPPNADDDLLRQIASYGRGYTYLLSRAGVTGAENRAALPLNHLVAKLKEYNAAPPLQGFGISAPDQVKAAIDAGAAGAISGSAIVKIIEQHINEPEKMLAALKVFVQPMKAATRS

In this data set the parent is B1. Conditions: Escherichia coli (strain K12), 25 °C, GdnHCl, CD, reversible: yes, structure 1WQ5, whole UniProt chain shown.
Where [1] appears, read: pH 7, Potassium phosphate 0.01 M.

As to MERYESLFAQLKERKEGAFVPFVTLGDPGIEQSLKIIDTLIEAGADALSLGIPFSDPLADGPTIQNATLRAFAAGVTPAQCFEMLALIRQKHPTIPIGLLMYANLVFNKGIDEFYAQCEKVGVDSVLVADVPVEESAPFRQAALRHNVAPIFICPPNADDDLLRQIASYGRGYTYLLSRAGVTGAENRAALPLNHLVAKLKEYNAAPPLQGFGISAPDQVKAAIDAGAAGAISGSAIVKIIEQHINEPEKMLAALKVFVQPMKAATRS [E49S], the “ddG of mutation (higher = less stable)” value is, setting by setting: (pH 5.5, acetate 0.05 M) 1.3 kcal/mol; under setting [1], 1.4 kcal/mol; (pH 9, Tris-HCl 0.025 M) -3.1 kcal/mol. Also, the unfolding free energy reads like this: (pH 5.5, acetate 0.05 M) 3.9 kcal/mol; under setting [1], 7.4 kcal/mol; (pH 9, Tris-HCl 0.025 M) 8 kcal/mol.

As for MERYESLFAQLKERKEGAFVPFVTLGDPGIEQSLKIIDTLIEAGADALQLGIPFSDPLADGPTIQNATLRAFAAGVTPAQCFEMLALIRQKHPTIPIGLLMYANLVFNKGIDEFYAQCEKVGVDSVLVADVPVEESAPFRQAALRHNVAPIFICPPNADDDLLRQIASYGRGYTYLLSRAGVTGAENRAALPLNHLVAKLKEYNAAPPLQGFGISAPDQVKAAIDAGAAGAISGSAIVKIIEQHINEPEKMLAALKVFVQPMKAATRS [E49Q], the “ddG of mutation (higher = less stable)” value was 2.4 kcal/mol (pH 5.5, acetate 0.05 M); 2.5 kcal/mol under setting [1]; -3.6 kcal/mol (pH 9, Tris-HCl 0.025 M). The unfolding free energy came to 2.8 kcal/mol (pH 5.5, acetate 0.05 M); 6.3 kcal/mol under setting [1]; 8.5 kcal/mol (pH 9, Tris-HCl 0.025 M).

Consider MERYESLFAQLKERKEGAFVPFVTLGDPGIEQSLKIIDTLIEAGADALYLGIPFSDPLADGPTIQNATLRAFAAGVTPAQCFEMLALIRQKHPTIPIGLLMYANLVFNKGIDEFYAQCEKVGVDSVLVADVPVEESAPFRQAALRHNVAPIFICPPNADDDLLRQIASYGRGYTYLLSRAGVTGAENRAALPLNHLVAKLKEYNAAPPLQGFGISAPDQVKAAIDAGAAGAISGSAIVKIIEQHINEPEKMLAALKVFVQPMKAATRS [E49Y], for which the “ddG of mutation (higher = less stable)” value was 0.4 kcal/mol (pH 5.5, acetate 0.05 M); 0 kcal/mol under setting [1]; -1.9 kcal/mol (pH 9, Tris-HCl 0.025 M). Moreover, the unfolding free energy stood at 4.8 kcal/mol (pH 5.5, acetate 0.05 M); 8.8 kcal/mol under setting [1]; 6.8 kcal/mol (pH 9, Tris-HCl 0.025 M).

MERYESLFAQLKERKEGAFVPFVTLGDPGIEQSLKIIDTLIEAGADALMLGIPFSDPLADGPTIQNATLRAFAAGVTPAQCFEMLALIRQKHPTIPIGLLMYANLVFNKGIDEFYAQCEKVGVDSVLVADVPVEESAPFRQAALRHNVAPIFICPPNADDDLLRQIASYGRGYTYLLSRAGVTGAENRAALPLNHLVAKLKEYNAAPPLQGFGISAPDQVKAAIDAGAAGAISGSAIVKIIEQHINEPEKMLAALKVFVQPMKAATRS [E49M]: the “ddG of mutation (higher = less stable)” value reads like this: (pH 5.5, acetate 0.05 M) -0.7 kcal/mol; under setting [1], -4.5 kcal/mol; (pH 9, Tris-HCl 0.025 M) -3.5 kcal/mol. The unfolding free energy is, setting by setting: (pH 5.5, acetate 0.05 M) 5.9 kcal/mol; under setting [1], 13.3 kcal/mol; (pH 9, Tris-HCl 0.025 M) 8.4 kcal/mol.

As for MERYESLFAQLKERKEGAFVPFVTLGDPGIEQSLKIIDTLIEAGADALVLGIPFSDPLADGPTIQNATLRAFAAGVTPAQCFEMLALIRQKHPTIPIGLLMYANLVFNKGIDEFYAQCEKVGVDSVLVADVPVEESAPFRQAALRHNVAPIFICPPNADDDLLRQIASYGRGYTYLLSRAGVTGAENRAALPLNHLVAKLKEYNAAPPLQGFGISAPDQVKAAIDAGAAGAISGSAIVKIIEQHINEPEKMLAALKVFVQPMKAATRS [E49V], the “ddG of mutation (higher = less stable)” value was -0.9 kcal/mol (pH 5.5, acetate 0.05 M); -3.2 kcal/mol under setting [1]; -4.5 kcal/mol (pH 9, Tris-HCl 0.025 M). For the same variant, the unfolding free energy by setting is: (pH 5.5, acetate 0.05 M) 6.1 kcal/mol; under setting [1], 12 kcal/mol; (pH 9, Tris-HCl 0.025 M) 9.4 kcal/mol.
